Literature values, collected in article PMC2033707.

Target: EGF (UniProt P01133)
Sequence of UniProt P01133 (P01133 971-1023): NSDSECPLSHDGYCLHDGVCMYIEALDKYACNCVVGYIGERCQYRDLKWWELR

Kd: 1 nM
Substance: EGFR (from UniProt P00533)
